Results on 2 molecules are retold here after paper PMC6062542, “Structural and Biochemical Characterization of AaL, a Quorum Quenching Lactonase with Unusual Kinetic Properties” (Scientific Reports, 2018).

The target of one data set is T1, AaL (Alicyclobacillus acidoterrestris, UniProt T0BMH6).
T1 construct: gene K1I37_05175; codon-optimized synthetic gene; N-terminal Strep tag (WSHPQFEK) + TEV site (ENLYFQS), tag cleaved with TEV; homodimer
T1 sequence (T0BMH6 1-282): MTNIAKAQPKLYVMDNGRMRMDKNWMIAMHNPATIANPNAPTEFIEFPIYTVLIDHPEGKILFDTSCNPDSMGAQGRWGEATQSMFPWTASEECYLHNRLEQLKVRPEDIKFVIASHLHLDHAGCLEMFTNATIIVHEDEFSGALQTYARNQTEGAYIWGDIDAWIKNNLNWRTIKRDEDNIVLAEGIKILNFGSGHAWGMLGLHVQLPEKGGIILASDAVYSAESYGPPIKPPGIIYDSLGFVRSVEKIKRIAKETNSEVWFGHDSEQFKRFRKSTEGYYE
As to the kind of experiment: X-ray crystal structure, […] Å, crystal soak. It counts as binding. The settings on record: soaked 10 min with 20 mM C6-AHL; active site, two cobalt cations; modelled occupancy 0.7.

Substrate in data set [1]: CCCC1CCC(=O)O1
Description: purified protein. Format: biochemical, Alicyclobacillus acidoterrestris. Particulars: 2.5 mM Bicine pH 8.3, 150 mM NaCl, 0.2 mM cresol purple, 0.5% DMSO, 0.2 mM CoCl2, room temperature.

Substrate in data set [2]: O=C1CCCO1
As to the kind of experiment: purified protein. Format: biochemical, Alicyclobacillus acidoterrestris. Particulars: 2.5 mM Bicine pH 8.3, 150 mM NaCl, 0.2 mM cresol purple, 0.5% DMSO, 0.2 mM CoCl2, room temperature.

Substrate in data set [3]: O=C1CCCCO1
Description: purified protein. It counts as biochemical, Alicyclobacillus acidoterrestris. The settings on record: 2.5 mM Bicine pH 8.3, 150 mM NaCl, 0.2 mM cresol purple, 0.5% DMSO, 0.2 mM CoCl2, room temperature.

Substrate in data set [4]: CCCCCC1CCCC(=O)O1
As to the kind of experiment: purified protein. It counts as biochemical, Alicyclobacillus acidoterrestris. Particulars: 2.5 mM Bicine pH 8.3, 150 mM NaCl, 0.2 mM cresol purple, 0.5% DMSO, 0.2 mM CoCl2, room temperature.

With `CCCCCC(=O)N[C@H]1CCOC1=O` [C6-AHL], the “X-ray crystal structure, 1.8 Å, crystal soak” value on AaL was “the structure of AaL bound to C6-AHL could be solved”.

B1: AaL (Alicyclobacillus acidoterrestris ATCC 49025) (protein)
chain: T1 sequence (T0BMH6 1-282)
notes: codon-optimized synthetic gene; N-terminal Strep tag (WSHPQFEK) + TEV site (ENLYFQS), tag cleaved with TEV; homodimer
As usually defined, the Km is the substrate concentration at which the rate is half of its maximum. Broadly, the kcat is the maximal rate divided by the concentration of active sites. Broadly, the kcat/Km is the second-order rate constant that governs catalysis at low substrate concentration. With B1, the Km in “purified protein [1]” amounted to 36.9 ± 8.9 µM; in the data set “purified protein [2]”, 171.0 ± 36.1 µM; in “purified protein [3]”, 18.7 ± 0.4 µM; in “purified protein [4]” it was 18.5 ± 0.4 µM. For the same molecule, the kcat in “purified protein [2]” was 23.5 ± 1.7 s⁻¹; in the data set “purified protein [3]”, 8.4 ± 0.4 s⁻¹; in the data set “purified protein [4]” it was 8.4 ± 0.6 s⁻¹. Further, the catalytic efficiency (kcat/Km) in the data set “purified protein [2]” is 140000 ± 30000 M⁻¹ s⁻¹; in the data set “purified protein [3]”, 450000 ± 90000 M⁻¹ s⁻¹; in “purified protein [4]” it was 450000 ± 100000 M⁻¹ s⁻¹.
